According to PMC3145769, “Cyclin A2 Mutagenesis Analysis: A New Insight into CDK Activation and Cellular Localization Requirements” (PLoS ONE, 2011):

Legend:
Test in all cases: co-IP; anti-Flag M2 affinity gel on extracts of human HEK 293 cells transfected with mouse 3xFlag Cyclin A2 alleles; endogenous partners detected by Western blot; densitometry (ImageQuantTL) normalised to immunoprecipitated Cyclin A2, percent of WT; repeated 3 times
Conditions in all cases: partners not purified
[1] = biological target: T1, Cyclin A2 L204A, C-terminally fused to 3 Flag tags (mouse, UniProt P51943 1-422, L204A)
T1 construct: Cyclin A2, mouse; cDNA obtained from NIH3T3 cells by RT-PCR; source: NIH3T3 or HEK 293 cells, transfected, in cell extracts; not shown: 3xFlag, C-terminal, kept
T1 sequence (P51943 whole entry L204A, the tested form may be a part): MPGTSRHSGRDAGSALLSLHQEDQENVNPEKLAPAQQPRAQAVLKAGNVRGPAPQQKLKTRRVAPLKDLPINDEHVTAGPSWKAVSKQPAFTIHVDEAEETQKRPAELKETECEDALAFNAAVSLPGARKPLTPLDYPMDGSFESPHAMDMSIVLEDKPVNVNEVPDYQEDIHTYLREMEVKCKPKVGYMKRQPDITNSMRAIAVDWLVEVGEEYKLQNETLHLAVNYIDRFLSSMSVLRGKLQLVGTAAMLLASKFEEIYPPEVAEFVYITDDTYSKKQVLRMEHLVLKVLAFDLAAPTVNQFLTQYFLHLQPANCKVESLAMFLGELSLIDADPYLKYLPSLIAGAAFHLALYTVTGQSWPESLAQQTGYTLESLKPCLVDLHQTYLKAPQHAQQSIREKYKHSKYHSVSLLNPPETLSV

[2] = biological target: T2, Cyclin A2 M200A, C-terminally fused to 3 Flag tags (mouse, UniProt P51943 1-422, M200A)
T2 construct: Cyclin A2, mouse; cDNA obtained from NIH3T3 cells by RT-PCR; source: NIH3T3 or HEK 293 cells, transfected, in cell extracts; not shown: 3xFlag, C-terminal, kept
T2 sequence (P51943 whole entry M200A, the tested form may be a part): as the sequence (P51943 whole entry L204A, the tested form may be a part) above, with M200A, A204L counted along it

[3] = biological target: T3, Cyclin A2 D171A, C-terminally fused to 3 Flag tags (mouse, UniProt P51943 1-422, D171A)
T3 construct: Cyclin A2, mouse; cDNA obtained from NIH3T3 cells by RT-PCR; source: NIH3T3 or HEK 293 cells, transfected, in cell extracts; not shown: 3xFlag, C-terminal, kept
T3 sequence (P51943 whole entry D171A, the tested form may be a part): as the sequence (P51943 whole entry L204A, the tested form may be a part) above, with D171A, A204L counted along it

[4] = biological target: T4, Cyclin A2 WT, C-terminally fused to 3 Flag tags (mouse, UniProt P51943 1-422)
T4 construct: Cyclin A2, mouse; cDNA obtained from NIH3T3 cells by RT-PCR; Same construct transfected into mouse NIH3T3 (assay a1) and human HEK 293 (assay a2); also called WT Cyclin A2 allele; Flag tagged WT Cyclin A2; source: NIH3T3 or HEK 293 cells, transfected, in cell extracts; not shown: 3xFlag, C-terminal, kept
T4 sequence (P51943 whole entry, the tested form may be a part): as the sequence (P51943 whole entry L204A, the tested form may be a part) above, with A204L counted along it

- percent co-precipitated relative to WT [1]: 5.3%
- percent co-precipitated relative to WT [2]: 57.4%
- percent co-precipitated relative to WT [3]: 95%
- percent co-precipitated relative to WT [4]: 100%
B1: p107 (endogenous, HEK 293) (natural protein, human (endogenous in HEK 293), UniProt P28749 1-1068, looked up)
chain: MFEDKPHAEGAAVVAAAGEALQALCQELNLDEGSAAEALDDFTAIRGNYSLEGEVTHWLACSLYVACRKSIIPTVGKGIMEGNCVSLTRILRSAKLSLIQFFSKMKKWMDMSNLPQEFRERIERLERNFEVSTVIFKKYEPIFLDIFQNPYEEPPKLPRSRKQRRIPCSVKDLFNFCWTLFVYTKGNFRMIGDDLVNSYHLLLCCLDLIFANAIMCPNRQDLLNPSFKGLPSDFHTADFTASEEPPCIIAVLCELHDGLLVEAKGIKEHYFKPYISKLFDRKILKGECLLDLSSFTDNSKAVNKEYEEYVLTVGDFDERIFLGADAEEEIGTPRKFTRDTPLGKLTAQANVEYNLQQHFEKKRSFAPSTPLTGRRYLREKEAVITPVASATQSVSRLQSIVAGLKNAPSDQLINIFESCVRNPVENIMKILKGIGETFCQHYTQSTDEQPGSHIDFAVNRLKLAEILYYKILETVMVQETRRLHGMDMSVLLEQDIFHRSLMACCLEIVLFAYSSPRTFPWIIEVLNLQPFYFYKVIEVVIRSEEGLSRDMVKHLNSIEEQILESLAWSHDSALWEALQVSANKVPTCEEVIFPNNFETGNGGNVQGHLPLMPMSPLMHPRVKEVRTDSGSLRRDMQPLSPISVHERYSSPTAGSAKRRLFGEDPPKEMLMDKIITEGTKLKIAPSSSITAENVSILPGQTLLTMATAPVTGTTGHKVTIPLHGVANDAGEITLIPLSMNTNQESKVKSPVSLTAHSLIGASPKQTNLTKAQEVHSTGINRPKRTGSLALFYRKVYHLASVRLRDLCLKLDVSNELRRKIWTCFEFTLVHCPDLMKDRHLDQLLLCAFYIMAKVTKEERTFQEIMKSYRNQPQANSHVYRSVLLKSIPREVVAYNKNINDDFEMIDCDLEDATKTPDCSSGPVKEERGDLIKFYNTIYVGRVKSFALKYDLANQDHMMDAPPLSPFPHIKQQPGSPRRISQQHSIYISPHKNGSGLTPRSALLYKFNGSPSKSLKDINNMIRQGEQRTKKRVIAIDSDAESPAKRVCQENDDVLLKRLQDVVSERANH
notes: p107, endogenous protein of human HEK 293 cells, detected by Western blot; source: endogenous, HEK 293 cell extract
